Consider eight molecules from publication PMC4933460, “Extracellular Regulation of Bone Morphogenetic Protein Activity by the Microfibril Component Fibrillin-1*” (The Journal of Biological Chemistry, 2016).

The labels stand for the following.
B1: BMP-7 PD variant 30-184 (domain or fragment)
chain: not shown
notes: BMP-7 prodomain, residues 30-184 of the BMP-7 precursor; source: E. coli, purified by chelating chromatography
B2: BMP-7 PD variant 30-217 (domain or fragment)
chain: not shown
notes: BMP-7 prodomain, residues 30-217 of the BMP-7 precursor; source: E. coli, purified by chelating chromatography
B3: BMP-7 growth factor (GF) dimer (ligand, UniProt P18075 293-431, looked up)
chain: STGSKQRSQNRSKTPKNQEALRMANVAENSSSDQRQACKKHELYVSFRDLGWQDWIIAPEGYAAYYCEGECAFPLNSYMNATNHAIVQTLVHFINPETVPKPCCAPTQLNAISVLYFDDSSNVILKKYRNMVVRACGCH
notes: The same GF is a component of the BMP-7 complex m23; also called BMP-7 GF; mature growth factor; source: stably transfected HEK293 EBNA cells; separated from the purified BMP-7 complex in 8 M urea, 1 M NaCl by chelating chromatography (flow-through)
B4: BMP-7 prodomain, full-length PD (residues 30-292), E. coli (domain or fragment)
chain: not shown
notes: also called full-length BMP-7 PD; source: E. coli, purified by chelating chromatography; not shown: His6, C-terminal, kept
B5: BMP-7 PD truncation variant 74-292 (domain or fragment)
chain: not shown
notes: source: E. coli, purified by chelating chromatography
B6: BMP-7 prodomain of the HEK293 EBNA cell-expressed BMP-7 complex (domain or fragment)
chain: not shown
notes: Glycosylated (carbohydrate chains absent in the E. coli preparation); also called PD; BMP-7 PD; source: stably transfected HEK293 EBNA cells, purified as part of the BMP-7 complex (chelating chromatography, gel filtration)
B7: BMP-7 PD variant 241-292 (domain or fragment, UniProt P18075 241-292, looked up)
chain: HNLGLQLSVETLDGQSINPKLAGLIGRHGPQNKQPFMVAFFKATEVHFRSIR
notes: as for B5
B8: BMP-7 PD variant 218-292 (domain or fragment, UniProt P18075 218-292, looked up)
chain: ASEEGWLVFDITATSNHWVVNPRHNLGLQLSVETLDGQSINPKLAGLIGRHGPQNKQPFMVAFFKATEVHFRSIR
notes: also called Ala218-Arg292; source: E. coli, purified by chelating chromatography

The target of data set [1] is T1, rF87, N-terminal fragment of fibrillin-1 (Ser19-Ile329) (UniProt P35555 19-329).
T1 construct: The sentence of the methods may also give rF87 the tandem C-terminal Strep-tag; it cannot be told; also called fibrillin-1 (rF87); N-terminal end of fibrillin-1
Description: SPR; PD variants immobilised at 500-800 RU, rF87 injected at 0-80 nM in HBS-EP (no urea); apparent KD. The conditions noted are these: both partners purified. In general terms: Surface plasmon resonance follows binding to a sensor surface in real time, without labels.

Data set [2] concerns the target B4. Briefly: SPR; E. coli-derived full-length PD (30-292) immobilised, GF flown over in HBS-EP with 1 M urea; apparent KD = kd/ka. The conditions noted are these: both partners purified.
The target in data set [3] is B4. Description: SPR; 1,000 RU of BMP-7 PD immobilised, 0-80 nM GF injected in sodium acetate buffer pH 4.5, 0.15 M NaCl, 3 mM EDTA, 0.005% P20; apparent KD. The conditions noted are these: both partners purified.
The next data set concerns the target T2, BMP-7 PD (30-292) P68A (UniProt P18075 30-292, P68A).
T2 construct: source: E. coli, purified by chelating chromatography; not shown: His6, C-terminal, kept
Description: ELISA; sandwich ELISA of reconstitution in solution: PD variants dialysed with the GF in TBS with 1 M urea overnight, captured by coated monoclonal anti-His6 antibody (C-terminal His6 of the PD), GF detected with an anti-GF antibody. The conditions noted are these: both partners purified. (In an ELISA, binding on a coated surface is turned into a signal by an enzyme label.)

In a further data set the target is T3, BMP-7 PD (30-292) H66A (UniProt P18075 30-292, H66A).
T3 construct: source: E. coli, purified by chelating chromatography; not shown: His6, C-terminal, kept
The data set is described as above. The conditions noted are these: both partners purified.

The target in a further data set is T4, BMP-7 PD (30-292) R67A (UniProt P18075 30-292, R67A).
T4 construct: source: E. coli, purified by chelating chromatography; not shown: His6, C-terminal, kept
The description is as above. The conditions noted are these: both partners purified.

Data set [4] concerns the target T5, BMP-7 PD truncation variant 48-292 (UniProt P18075 48-292).
T5 construct: source: E. coli, purified by chelating chromatography; not shown: His6, C-terminal, kept
Description: SPR; BIAcore 2000; BMP-7 GF covalently coupled to a CM5 chip (500 RU), PD variants flown over in HBS-EP pH 7.4 with 1 M urea; 1:1 model with mass transfer; apparent KD = kd/ka. The conditions noted are these: both partners purified.

Data set [5] concerns the target T6, BMP-7 PD truncation variant 55-292 (UniProt P18075 55-292).
T6 construct: source: E. coli, purified by chelating chromatography
The data set is described as above. The conditions noted are these: both partners purified.

For data set [6], the target named is T7, BMP-7 PD truncation variant 65-292 (UniProt P18075 65-292).
T7 construct: source: E. coli, purified by chelating chromatography
The description is as above. The conditions noted are these: both partners purified.

In data set [7] the target is B4. The description is as above. The conditions noted are these: both partners purified.
Data set [8] concerns the molecule itself. Description: SPR; PD/PD interaction: 500-800 RU of full-length PD (30-292) or truncated variants (48-292, 55-292) immobilised, 0-320 nM PD variants injected in HBS-EP with 1 M urea; apparent KD.
Data set [9] deals with the molecule itself. Description: velocity sedimentation in sucrose gradients; 10 μg BMP-7 complex dialysed against TBS with 1 M urea, 5-20% sucrose gradient, 28 fractions, Western blots for PD and GF. For orientation: A western blot detects proteins with antibodies after separation by electrophoresis.
For data set [10], the target named is B4. Description: SPR; PD/PD interaction: 500-800 RU of full-length PD (30-292) or truncated variants (48-292, 55-292) immobilised, 0-320 nM PD variants injected in HBS-EP with 1 M urea; apparent KD. The conditions noted are these: both partners purified.

T1 sequence (P35555 19-329): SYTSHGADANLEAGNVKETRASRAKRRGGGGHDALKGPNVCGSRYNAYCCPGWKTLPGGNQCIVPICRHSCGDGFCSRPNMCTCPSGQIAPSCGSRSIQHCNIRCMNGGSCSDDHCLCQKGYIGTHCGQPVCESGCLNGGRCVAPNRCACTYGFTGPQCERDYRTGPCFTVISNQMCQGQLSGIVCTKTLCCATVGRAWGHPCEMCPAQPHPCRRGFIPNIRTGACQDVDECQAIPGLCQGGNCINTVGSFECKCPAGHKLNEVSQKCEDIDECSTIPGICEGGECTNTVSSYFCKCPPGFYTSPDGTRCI

Consider B1, for which the Kd in data set [1] came to 38 ± 3 nM.
Same read-out and setting: as for B2, the figure is 27 ± 6 nM.
With B3, the Kd in [2] is 31.5 ± 0.2 nM; in data set [3] it was 20 ± 0.1 nM; in [4] it was 19 ± 1 nM; in data set [5], 15 ± 3 nM; in [6], 8 ± 1 nM; in data set [7], 19.4 nM. The “percent inhibition of complex formation” value in the data set with BMP-7 PD (30-292) P68A was approximately 65%; with BMP-7 PD (30-292) H66A, 30%; with BMP-7 PD (30-292) R67A, approximately 65%.
For B4, the figures for the Kd in data set [8] and in data set [1] were 3 ± 0.01 nM and 32 ± 7 nM, respectively.
As for B5, the Kd in [1] was determined as 26 ± 4 nM.
Regarding B6, the stoichiometry N (as a rule, a count of units in the complex or per binding partner) in [9] worked out at 2.
With B7, in data set [10], the Kd came out at 39.1 ± 3.3 nM.
Still for that read-out and setting: the value for B8 was 26.8 ± 3.1 nM.
